B1: 2M-10B11 (human monoclonal antibody) (antibody, V domains shown)
VH: EVQLVESGGGLVQPGGSLRLSCAASGFTVSSNYMSWVRQAPGKGLEWVSVIYSGGSTYYADSVKGRFTISRDNSKNTLYLQMNSLRAEDTAVYYCARATWLRGVMDVWGQGTTVTVSS
VL: QSALTQPHSVSESPGKTVTISCTGSSGSIASNYVQWYQQRPGSAPTTVIYEDNQRPSGVPDRFSGSIDSSSNSASLTISGLKTEDEADYYCQSYDSSNHWVFGGGTKLTVL
notes: ELISA group 2B; also called mAb 2M-10B11
B2: 9A1 (human monoclonal antibody) (antibody, V domains shown)
VH: EVQLLESGGGVVQPGRSLRLSCVVSGFTFNNYGMHWVRQAPGKGLEWVAVISYEGSVKYYGDHVDGRFTISRDPFKNTLYLHMNNLRPDDTAVYYCAKVSAIFWLGQGLSPIDVWGQGTTVTVSS
VL: DIVMTQSPATLSASPGERVTLSCRASQNIRNNLAWYQQKPGQAPRLLIHGASTRAAGAPARFSGSGSDTQFTLTVSSLQSEDFAVYYCHQYSKWPVTFGGGTKVDIK
notes: also called mAb 9A1
B3: 1M-1D2 (human monoclonal antibody) (antibody, V domains shown)
VH: QVQLVESGGGLVQPGGSLRLSCAASGFTFSSYAMHWVRQAPGKGLEYVSAISGNGGSTYYAKSVKGRFTISRDNSKNTLYLQMGSLRAEDMAVYYCARGAEYYDFWSGYYSAYFDYWGQGTLVTVSS
VL: QAVVTQPPSASGTPGQRVTISCSGSSSNIGSNYVYWYQQLPGTAPKLLIYNNNQRPSGVPDRFSGSKSGTSASLAISGLRSEDEADYYCAAWDDSLIYVLFGGGTKLTVL
B4: 0304-3H3 (human monoclonal antibody) (antibody, V domains shown)
VH: EVQLVESGPGLVKPSETLSLTCTASGGSISTYYWSWIRQPPGKGLEWIGYIYYSGSTNYNPSLKSRVTISVDTSKNQFSLKLSSVTAADTAVYYCARDRIAPVGKFFGWYFDLWGRGTLVTVSS
VL: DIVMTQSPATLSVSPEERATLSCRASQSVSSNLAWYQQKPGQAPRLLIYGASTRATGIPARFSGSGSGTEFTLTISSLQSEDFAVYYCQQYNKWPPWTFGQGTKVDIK
notes: also called mAb 0304-3H3
B5: 4A8 (human monoclonal antibody) (antibody, V domains shown)
VH: EVQLVESGAEVKKPGASVKVSCKVSGYTLTELSMHWVRQAPGKGLEWMGGFDPEDGETMYAQKFQGRVTMTEDTSTDTAYMELSSLRSEDTAVYYCATSTAVAGTPDLFDYYYGMDVWGQGTTVTVSS
VL: EIVMTQSPLSSPVTLGQPASISCRSSQSLVHSDGNTYLSWLQQRPGQPPRLLIYKISNRFSGVPDRFSGSGAGTDFTLKISRVEAEDVGVYYCTQATQFPYTFGQGTKVDIK

Tests used:
Details in all cases: both partners purified
[1] = biological target: T1, SARS-CoV-2 Spike protein receptor binding domain (RBD) (Severe acute respiratory syndrome …, UniProt P0DTC2); test: BLI
[2] = biological target: SARS-CoV-2 Spike protein S2 (SARS-CoV-2, Wuhan-Hu-1 (P0DTC2), UniProt P0DTC2); test: BLI
[3] = biological target: SARS-CoV-2 Spike protein S1 (SARS-CoV-2, Wuhan-Hu-1 (P0DTC2), UniProt P0DTC2); test: BLI
[4] = biological target: T1, SARS-CoV-2 Spike protein receptor …; test: ELISA

Row | Binder | Kd [2] | Kd [3] | also measured
1 | B1 |  |  | Kd [1]: 24.3 nM
2 | B2 | < 0.001 nM |  | 
3 | B3 |  | 108 nM | 
4 | B4 | 4.52 nM |  | 
5 | B5 |  | 92.7 nM | binding result [4]: no binding

Reference: article PMC7319273 (Science (New York, N.y.), 2020)
